Assay [1] deals with C3b dimers (C3b2) (human) (UniProt P01024). Nature of the assay: SPR, CRIg-Fc captured on a CM5 chip via an antibody to the Fc tag, dimeric C3b injected, response at equilibrium. For orientation: SPR reads the build-up and loss of mass on a sensor chip optically.
The target of assay [2] is C3b (purified; species not stated in Examples 12, 13, 19, 20) (UniProt P01024). Nature of the assay: ELISA. Particulars: Fc fusion. (In general: In an ELISA, binding on a coated surface is turned into a signal by an enzyme label.)
In assay [3] the target is murine C3 or a fragment of C3, deposited on particles opsonized with mouse serum (mouse) (UniProt P01027). Nature of the assay: flow cytometry. Particulars: Fc fusion. (In flow cytometry, cells or beads pass a laser one at a time.)
Target sequence in this assay (P01027 25-666, chain 1 of 2): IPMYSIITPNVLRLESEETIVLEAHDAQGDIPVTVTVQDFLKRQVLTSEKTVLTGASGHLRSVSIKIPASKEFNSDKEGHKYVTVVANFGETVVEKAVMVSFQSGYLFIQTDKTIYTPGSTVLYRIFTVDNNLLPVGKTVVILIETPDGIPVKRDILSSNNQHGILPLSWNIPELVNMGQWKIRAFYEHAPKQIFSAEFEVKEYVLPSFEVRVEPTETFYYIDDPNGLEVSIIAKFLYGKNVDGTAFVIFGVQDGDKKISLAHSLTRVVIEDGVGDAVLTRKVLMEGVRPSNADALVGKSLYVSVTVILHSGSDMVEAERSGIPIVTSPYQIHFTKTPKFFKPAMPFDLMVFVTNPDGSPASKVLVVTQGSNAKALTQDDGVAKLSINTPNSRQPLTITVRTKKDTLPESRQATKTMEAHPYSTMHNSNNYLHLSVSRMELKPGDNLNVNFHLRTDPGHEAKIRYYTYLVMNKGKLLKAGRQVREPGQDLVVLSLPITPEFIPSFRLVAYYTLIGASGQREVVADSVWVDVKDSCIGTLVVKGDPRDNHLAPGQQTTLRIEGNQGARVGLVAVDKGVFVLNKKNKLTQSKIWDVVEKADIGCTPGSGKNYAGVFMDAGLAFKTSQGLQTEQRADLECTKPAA
Target sequence in this assay (P01027 749-1663, chain 2 of 2): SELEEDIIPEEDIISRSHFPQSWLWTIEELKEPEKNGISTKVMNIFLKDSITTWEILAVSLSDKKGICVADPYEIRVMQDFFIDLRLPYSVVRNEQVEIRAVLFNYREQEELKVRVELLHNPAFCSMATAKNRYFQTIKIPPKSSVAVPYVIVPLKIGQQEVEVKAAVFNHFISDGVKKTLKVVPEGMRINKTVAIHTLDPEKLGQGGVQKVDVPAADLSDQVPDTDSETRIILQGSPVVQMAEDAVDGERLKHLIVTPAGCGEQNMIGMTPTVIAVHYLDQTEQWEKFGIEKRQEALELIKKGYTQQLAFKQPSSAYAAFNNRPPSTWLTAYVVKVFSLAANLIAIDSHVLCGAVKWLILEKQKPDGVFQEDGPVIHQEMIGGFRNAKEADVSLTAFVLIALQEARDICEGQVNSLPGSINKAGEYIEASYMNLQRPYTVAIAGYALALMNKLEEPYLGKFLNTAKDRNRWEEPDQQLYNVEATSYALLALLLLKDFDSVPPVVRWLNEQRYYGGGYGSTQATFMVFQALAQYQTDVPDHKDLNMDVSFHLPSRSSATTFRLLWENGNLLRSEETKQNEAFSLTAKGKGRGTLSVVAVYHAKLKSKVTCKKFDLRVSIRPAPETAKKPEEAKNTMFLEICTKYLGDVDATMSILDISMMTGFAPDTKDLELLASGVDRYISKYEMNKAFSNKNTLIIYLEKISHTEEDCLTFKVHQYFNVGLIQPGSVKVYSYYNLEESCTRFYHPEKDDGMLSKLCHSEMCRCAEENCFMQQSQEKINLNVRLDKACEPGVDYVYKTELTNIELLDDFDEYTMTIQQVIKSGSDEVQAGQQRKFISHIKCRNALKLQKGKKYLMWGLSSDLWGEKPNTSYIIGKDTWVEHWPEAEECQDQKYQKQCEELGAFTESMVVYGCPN
Assay [4] has the same target. Nature of the assay: cell-based or functional assay.

pKd: −log10 of the molar value.

As usually defined, the pKd is the Kd on a negative log10 scale, so that one unit is a factor of ten. Higher therefore signals a low Kd.

“huCRIg(S)-Fc fusion protein (from UniProt Q9Y279 20-283)” gave a pKd in assay [1] of 7.36.

As for murine CRIg-Fc fusion protein, the values for the pKd in assay [2] and in assay [3] were 7.30 and 7.77, respectively.

In assay [4], “murine CRIg expressed on the cell surface (receptor)” yielded a reduction in E-IgM rosetting of CRIg ko KCs compared to CRIg wt KCs of 60%.

On to “complement receptor 3 (CR3) on mouse Kupffer cells (from UniProt P05555 17-1153; P11835 24-771)”, for which, in assay [4], the further reduction in rosette formation with the addition of CR3 blocking antibody was < 20%.

The substance “human CRIg-Fc fusion protein (long or short form not specified) (from UniProt Q9Y279 20-283)” showed a pKd in assay [2] of 7.12.

In the case of “huCRIg(L)-Fc fusion protein (from UniProt Q9Y279 20-283)”, the pKd in assay [1] was 6.88.
